Data from patent US20090054342A1 (COMPUGEN, published 2009).
One block for each molecule: values may come before it. No end group written: not given here.

How the values were obtained:
[1] = target: MrgX1 (Mas-related G-protein coupled receptor member X1) (UniProt Q96LB2); assay: cell-based or functional assay
[2] = target: MrgX1 (Mas-related G-protein coupled receptor member X1) (UniProt Q96LB2 1-322, limits assumed); assay: cell-based or functional assay
[3] = target: T1, FPRL1 (FPR-related receptor 1) (UniProt P25090 1-351, limits assumed); assay: competitive radioligand binding against 0.025 nM [125I] WKYMVm on FPRL1-transfected CHO cells, 90 min at 25 C
T1 construct: whole, on cells; Expressed in CHO cells (with Gα16 in the calcium flux assay); also called lipoxin A4 receptor; LXA4R
T1 sequence (looked up): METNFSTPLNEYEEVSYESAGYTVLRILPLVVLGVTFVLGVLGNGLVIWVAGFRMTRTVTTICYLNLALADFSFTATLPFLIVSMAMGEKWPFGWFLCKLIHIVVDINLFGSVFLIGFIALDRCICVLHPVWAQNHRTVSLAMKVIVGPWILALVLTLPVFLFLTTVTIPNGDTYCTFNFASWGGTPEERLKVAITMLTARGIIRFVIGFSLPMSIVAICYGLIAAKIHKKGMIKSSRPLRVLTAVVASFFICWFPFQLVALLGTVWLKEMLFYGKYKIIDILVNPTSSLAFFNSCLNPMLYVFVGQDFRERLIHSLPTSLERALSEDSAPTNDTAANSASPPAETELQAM
Protocol: The specific binding of Peptide 58 (SEQ ID NO:1) to FPRL1 was analyzed by testing its ability to compete with 0.025 nM [¹²⁵I] WKYMVm (W peptide), a known agonist of FPRL1, for binding to FPRL1 in CHO transfected cells. CKβ8-1 (aa 46-137), another known ligand of FPRL1 was used as a positive control in this assay (Chiang et al 2006, Pharmacological Reviews 58, 463-487). Peptides were incubated with cells for 90 minutes at 25° C., in the presence of Incubation Buffer (50 mM HEPES, pH 7.4, 100 mM NaCl, 5 mM KCl, 5 mM MgCl2, 2 mM Ca C12, 0.5% BSA) and the amount of radioactive W peptide was measured.

Mas receptor = target: T2, Mas receptor (UniProt P04201 1-325, limits assumed); assay: cell-based or functional assay
T2 sequence (looked up): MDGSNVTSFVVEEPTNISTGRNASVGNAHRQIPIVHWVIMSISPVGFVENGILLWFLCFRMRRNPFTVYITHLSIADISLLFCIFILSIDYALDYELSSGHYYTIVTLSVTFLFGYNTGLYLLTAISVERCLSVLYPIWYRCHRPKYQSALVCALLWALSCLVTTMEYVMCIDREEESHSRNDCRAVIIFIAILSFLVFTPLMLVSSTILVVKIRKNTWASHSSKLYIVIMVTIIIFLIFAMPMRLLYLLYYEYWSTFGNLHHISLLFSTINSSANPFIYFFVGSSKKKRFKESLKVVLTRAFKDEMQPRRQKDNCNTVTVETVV

Chain of MrgX1 (Mas-related G-protein coupled receptor member X1) (UniProt Q96LB2) (Q96LB2 whole entry): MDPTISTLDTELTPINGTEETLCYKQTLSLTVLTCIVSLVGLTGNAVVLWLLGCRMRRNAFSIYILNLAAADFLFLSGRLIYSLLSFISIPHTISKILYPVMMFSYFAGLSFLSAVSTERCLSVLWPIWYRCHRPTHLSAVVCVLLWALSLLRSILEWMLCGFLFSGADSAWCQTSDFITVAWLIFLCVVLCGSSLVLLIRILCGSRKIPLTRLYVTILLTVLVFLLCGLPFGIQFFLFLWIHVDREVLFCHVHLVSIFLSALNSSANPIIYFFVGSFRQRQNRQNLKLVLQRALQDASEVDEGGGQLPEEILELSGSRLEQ
Chain of MrgX1 (Mas-related G-protein coupled receptor member X1) (UniProt Q96LB2 1-322, limits assumed) (Q96LB2 whole entry): as above

EC50 (calcium flux dose response) [1]: > 50 nM
Molecule: BAM22 (bovine adrenal medulla peptide 22) (from UniProt P01211 206-227)

EC50 (calcium flux dose response) [2]: ≥ 300 nM
Molecule: GIGSVWHWKHRVATRFTLPRFLQ [Peptide 60_S]

IC50 [3]: 189 nM
Ki [3]: 54.1 nM
B1: Peptide 58 (peptide)
peptide: TIPMFVPESTSKLQKFTSWFM-NH2
notes: Synthetic peptide (SPPS); also called P58; peptide P58

EC50 (calcium flux dose response) (Mas receptor): ≥ 1000 nM
Molecule: SMVHRWSRAVLFPAAHRP (also: acetate salt) [Peptide 33_V]

EC50 (calcium flux dose response) (Mas receptor): ≥ 500 nM
Molecule: FLGYSIYLNRKRRGDPAFKRRLRD [Peptide 61_S]
